Data: US20250059285A1

Target: human Gal10-His (human) (UniProt Q05315)
Assay: competition ELISA on coated Gal10-His; negative control, competitor g7B07-hFab-Biot; set as 0%

Chain of human Gal10-His (human) (Q05315 2-142 limits assumed): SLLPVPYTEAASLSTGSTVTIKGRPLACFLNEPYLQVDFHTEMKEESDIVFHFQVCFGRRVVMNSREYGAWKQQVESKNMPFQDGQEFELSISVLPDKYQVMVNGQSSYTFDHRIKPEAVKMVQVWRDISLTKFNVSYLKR

With Motavizumab in a human Fab backbone the % Competition against g7B07-Biot was 0% and the Mean OD value was 2.51 OD.
